What was measured:
[1] = system: human platelet rich plasma (PRP); format: cell-based; settings: method of Example 1 (collagen-induced, human PRP); read-out: IC50 determined by platelet aggregation inhibition assay
Procedure: To isolate Saxatilin from the venom of Agkistrodon saxatilis emelianov, 302.4 mg of crude venom from the snake was applied to a SEPHADEX™ G-75 gel filtration column (1.8×100 cm) equilibrated with PBS buffer, and fractionated at a flow rate of 20 ml/h. The activity of Saxatilin was determined by the platelet aggregation inhibition assay: The concentrated human platelet rich plasma (PRP) obtained from 400 ml of human blood was diluted to the concentration of 300,000 platelets/μl. The diluted PRP (450 μl) was mixed with 50 μl of PBS and then incubated in the aggregometer CHROMO-LOGT™, USA) at 37° C. for 3 minutes. After collagen ([…]) was added into the PRP solution to induce the platelet aggregation, the difference of light transmittance was measured.
Recombinant Saxatilin obtained in Example 6 was assayed by the platelet aggregation inhibition method described in Example 1, and compared with those of wild-type Saxatilin obtained in Example 1 and GRGDSP (SEQ ID NO:7) (see: Table 1), respectively.

[2] = system: αVβ3 integrin on HUVEC surface; test: HUVEC adhesion to Vitronectin-coated plate; format: cell-based, human; settings: pre-incubation of bFGF-stimulated HUVEC 20 min; FIG. 4a
Procedure: To confirm that inhibition of HUVEC proliferation by Saxatilin is due to the direct interaction of Saxatilin with Vitronectin receptor, αVβ3 integrin, localized on the HUVEC surface, it was investigated whether Saxatilin blocks HUVEC from binding to Vitronectin-coated 96-well plate.
(§1) 96-well plate was coated with recombinant Saxatilin obtained in Example 6 (1 μg/well) as well as Vitronectin (0.5 μg/well) which were dissolved in phosphate buffered saline (PBS) for 16 hr at 4° C. After washing the plate, 10 mg/ml of heat-treated bovine serum albumin (BSA) was added for blocking of uncharged protein binding site. The plate was incubated for 1 hr and washed with PBS. HUVEC was trypsinized and washed with PBS three times, and then, resuspended in serum-free DMEM. 5×10^4 cells were mixed with anti-αVβ3 monoclonal antibody, a synthesized RGD peptide, GRGDSP (SEQ ID NO:7), a synthesized RGE peptide, GRGETP (SEQ ID NO:8) and Saxatilin, and pre-incubated for 20 min at 37° C. Then, the mixture was added to the wells of both Saxatilin and Vitronectin-coated 96-well plate. After 1 hr of incubation at 37° C. under an environment of 5% CO2, the plate was washed with PBS to remove unbound cells, and bound cells were fixed and stained with Coomassie blue. Optical absorbences of the wells were measured at 540 nm to count relative cell numbers (see: FIGS. 4a and 4b).

[3] = system: αVβ3 integrin on HUVEC surface; test: HUVEC adhesion to Saxatilin-coated plate; format: cell-based, human; settings: pre-incubation of bFGF-stimulated HUVEC 20 min; FIG. 4b
Procedure: as §1

[4] = system: human platelet rich plasma; test: Platelet aggregation inhibition assay, ADP-induced (Example 5); format: cell-based
Procedure: After ADP was added into each of the PRP solutions to induce the platelet aggregation, the turbidity was measured, respectively (see: FIG. 1).

ICR mice = test: Collagen/epinephrine-induced thrombosis in mice, viability; format: in vivo, mouse; settings: 10 min before collagen + epinephrine
Procedure: When a mixture of collagen and epinephrine was injected into mice intravenously, thrombus was formed in pulmonary artery, which led to paralysis, dilation of pupil, laboring breath and convulsions, and finally 70% of the mice died not more than 5 min. Thus, it was investigated whether the intravenous injection of recombinant Saxatilin could reduce the thrombosis symptoms.
At 10 minutes after Saxatilin (0, 0.1, 0.25 and 0.5 mg/kg dissolved in 0.1 ml PBS, respectively) was intravenously injected into the tails of ICR mice, the mixture of collagen and epinephrine (120 μg collagen and 12 μg epinephrine in 0.1 ml PBS) was also injected into the tails of ICR mice, intravenously, and the viability was determined (see: Table 2).

HUVEC = test: bFGF-stimulated HUVEC proliferation inhibition assay; format: cell-based, human; settings: 0, 20, 30 μg/ml; 1 ng/ml bFGF; 72 hr; FIG. 3
Procedure: To investigate whether recombinant Saxatilin containing RGD sequence inhibits the endothelial cell proliferation, proliferation inhibition assay was performed using HUVEC.
HUVEC was cultured on 24-well microplate coated with gelatin at 37° C. for 24 hr under an environment of 5% CO2. […] Then, cells were further incubated for 20 min and treated with 1 ng/ml of bFGF solution. After incubation of 72 hr, cells were trypsinized and the cell numbers were counted to determine cell viability (see: FIG. 3).

[5] = system: chick chorioallantoic membrane (CAM); test: Chick chorioallantoic membrane (CAM) assay, bFGF-stimulated angiogenesis; format: in vivo; settings: 5 μg applied to CAM, observed at 72 hr; FIG. 5b
Procedure: Chick chorioallantoic membrane (CAM) assay, a simulated in vivo model, was carried out to examine the effect of Saxatilin on bFGF-stimulated angiogenesis. A part of the rind of fertilized 3-day-old egg was broken carefully, and sealed with transparent tape, and incubated for 10 days at 37° C. under an environment of 60% humidity. Then, bFGF was applied to the chick chorioallantoic membrane (CAM) of individual embryo (6 ng/embryo) to induce angiogenesis. After further incubation of 24 hr, PBS as a negative control and 5 μg recombinant Saxatilin obtained from Example 6 were applied to CAM, respectively. At 72 hr after treatment, the blood vessels of embryos were observed (see: FIGS. 5a and 5b).

[6] = system: Lewis lung carcinoma cells; test: Metastatic Lewis lung carcinoma growth in mice; format: in vivo, C57BL/6 mice
Procedure: 1×10^6 Lewis lung carcinoma cells (purchased from […], Rockville, Md., USA) were injected into the tails of 8-week-old male C57BL/6 mice (Charles river, Japan), intravenously. At 4 day after injection, recombinant Saxatilin obtained from Example 6 was periodically applied to mice by intravenous injection in an amount of 1.25 mg/kg/day (once per day). After 4-weeks of periodical treatment, tumor-bearing mice were sacrificed, and the number of tumor colony was counted by using stereomicroscope.
Furthermore, to observe the direct effect of Saxatilin on the metastatic lung carcinoma, histochemical study was carried out. Tumor-bearing lung tissue was fixed in paraffin in accordance with the conventionally known method followed by treatment of Bouin's solution for 4 hours. The tissue section of 4 μm thickness was infiltrated with trypsin at 37° C. for 10 min and washed with PBS. The tissue section was stained with hematoxylin and eosin, and then mounted (see: FIGS. 6a, 6b and 6c). FIG. 6a is a photograph showing lung tissue without Lewis lung carcinoma cell; FIG. 6b, lung tissue implanted with Lewis lung carcinoma cell and then treated with PBS; and, FIG. 6c, lung tissue implanted with Lewis lung carcinoma cell and then treated with Saxatilin. […] As illustrated as above, it was assumed that the suppression of metastatic tumor growth in Saxatilin-treated mice was due to blockade of Saxatilin against angiogenesis, which was essential for the secondary tumor growth.

male C57BL/6 mouse = test: Acute toxicity (LD50); format: in vivo; settings: subcutaneous injection, 7 days
Procedure: To examine the acute toxicity of Saxatilin as anti-platelet aggregation agent and anti-tumor agent, Saxatilin was injected into male C57BL/6 mouse subcutaneously and the dead were counted to determine LD50 for 7 days.

BCE cell = test: bFGF-stimulated BCE cell proliferation; format: cell-based
[7] = 1.25 mg/kg/day i.v. from day 4, 4 weeks, C57BL/6 mice

N=C(N)NCCC[C@H](NC(=O)CN)C(=O)NCC(=O)N[C@@H](CC(=O)O)C(=O)N[C@@H](CO)C(=O)N1CCC[C@H]1C(=O)O [GRGDSP, reference compound]
IC50 [1]: 270000 nM
HUVEC adhering to Vitronectin [2]: prevented HUVEC from adhering
HUVEC adhering to Saxatilin [3]: prevented HUVEC from adhering

B1: Saxatilin (protein)
chain: EAGEECDCGAPANPCCDAATCKLRPGAQCAEGLCCDQCRFMKEGTICRMARGDDMDDYCNGISAGCPRNPFHA
IC50 ([4]; ADP-induced aggregation, human PRP, 25° C.): 179 nM
inhibitory effect relative to GRGDSP peptide ([4]; ADP-induced platelet aggregation, more potent than GRGDSP): 1000 times
Mortal group/Total group (ICR mice; 0.1 mg/kg i.v.): 16/20
Viability (ICR mice; 0.1 mg/kg i.v.): 20
Mortal group/Total group (ICR mice; 0.25 mg/kg i.v.): 11/20
Viability (ICR mice; 0.25 mg/kg i.v.): 55
Mortal group/Total group (ICR mice; 0.5 mg/kg i.v.): 3/20
Viability (ICR mice; 0.5 mg/kg i.v.): 85
effect on HUVEC growth (HUVEC): inhibited the HUVEC growth in a dose-dependent manner
HUVEC adhering to Vitronectin [2]: prevented HUVEC from adhering
HUVEC adhering to Saxatilin [3]: prevented HUVEC from adhering
effect on bFGF-stimulated angiogenesis (CAM) [5]: had an inhibitory effect on angiogenesis
Average colony number [6, 7]: 0.7 ± 0.6
Inhibition rate (%) [6, 7]: 95%
effect on metastatic tumor growth ([6]; 1.25 mg/kg/day i.v., 4 weeks): potently inhibited the metastatic tumor growth
metastatic tumor growth in lung tissue, histochemical study ([6]; hematoxylin and eosin stained lung sections, FIG. 6c): not observed
toxicity on tested mice ([6]; tumor-bearing mice, 1.25 mg/kg/day i.v.): no toxicity
LD50 (male C57BL/6 mouse): about 1100 mg/kg
bFGF-stimulated BCE cell proliferation (BCE cell): potently inhibited

B2: Recombinant Saxatilin: Saxatilin expressed in Pichia pastoris transformed with pPSAX, obtained in Example 6 (protein)
chain: EAGEECDCGAPANPCCDAATCKLRPGAQCAEGLCCDQCRFMKEGTICRMARGDDMDDYCNGISAGCPRNPFHA
IC50 [1]: 139 nM

Reference: patent US7033788B2, “Protein derived from Agkistrodon saxatilis emelianov and process preparing the same” (priority 2002, dated 2006)
